Like-named read-outs stand apart in the source and are kept apart here.
Tests used:
[1] = biological target: T1, activin AC (UniProt P08476 311-426; P55103 237-352); test: Biacore SPR
T1 sequence (looked up) 1: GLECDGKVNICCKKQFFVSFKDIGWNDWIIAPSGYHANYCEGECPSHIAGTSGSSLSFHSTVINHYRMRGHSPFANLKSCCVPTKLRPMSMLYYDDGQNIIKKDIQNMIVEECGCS
T1 sequence (looked up) 2: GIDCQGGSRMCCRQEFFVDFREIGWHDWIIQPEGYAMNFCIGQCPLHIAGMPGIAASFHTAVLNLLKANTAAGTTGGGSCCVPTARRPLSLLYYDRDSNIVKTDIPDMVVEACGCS
Description: (§1) Ligands were injected and allowed to flow over the captured receptor protein.

[2] = biological target: T2, GDF11 (UniProt O95390 299-407); test: Biacore SPR
T2 construct: also called BMP11
T2 sequence (looked up): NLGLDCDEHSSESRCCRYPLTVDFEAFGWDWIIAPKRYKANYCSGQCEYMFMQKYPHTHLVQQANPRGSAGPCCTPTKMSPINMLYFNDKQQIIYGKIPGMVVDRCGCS
Description: as §1

[3] = biological target: T3, BMP7 (UniProt P18075 293-431); test: Biacore SPR
T3 sequence (looked up): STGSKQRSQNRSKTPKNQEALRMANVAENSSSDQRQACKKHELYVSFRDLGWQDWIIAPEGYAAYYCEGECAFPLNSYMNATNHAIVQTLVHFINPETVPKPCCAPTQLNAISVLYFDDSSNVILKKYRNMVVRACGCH
Description: as §1

[4] = biological target: T4, activin A (UniProt P08476 311-426); test: Biacore SPR
T4 sequence (looked up): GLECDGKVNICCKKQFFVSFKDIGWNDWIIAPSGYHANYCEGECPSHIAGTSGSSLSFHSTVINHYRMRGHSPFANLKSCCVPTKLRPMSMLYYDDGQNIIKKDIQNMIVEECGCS
Description: as §1

[5] = biological target: T5, BMP10 (UniProt O95393 317-424); test: Biacore SPR
T5 sequence (looked up): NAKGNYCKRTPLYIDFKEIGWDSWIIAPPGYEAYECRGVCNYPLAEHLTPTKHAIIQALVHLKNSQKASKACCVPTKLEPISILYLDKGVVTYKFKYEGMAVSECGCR
Description: as §1

[6] = biological target: T6, activin AB (UniProt P08476 311-426; P09529 293-407); test: Biacore SPR
T6 sequence (looked up) 1: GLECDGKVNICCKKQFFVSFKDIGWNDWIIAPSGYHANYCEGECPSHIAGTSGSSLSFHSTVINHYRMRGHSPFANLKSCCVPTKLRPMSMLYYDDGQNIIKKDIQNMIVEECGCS
T6 sequence (looked up) 2: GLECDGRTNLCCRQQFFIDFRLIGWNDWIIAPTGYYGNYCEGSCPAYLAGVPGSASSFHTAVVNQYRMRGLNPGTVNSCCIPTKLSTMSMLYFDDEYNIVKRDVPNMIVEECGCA
Description: as §1

[7] = biological target: T7, BMP6 (UniProt P22004 382-513, limits assumed); test: Biacore SPR
T7 sequence (looked up): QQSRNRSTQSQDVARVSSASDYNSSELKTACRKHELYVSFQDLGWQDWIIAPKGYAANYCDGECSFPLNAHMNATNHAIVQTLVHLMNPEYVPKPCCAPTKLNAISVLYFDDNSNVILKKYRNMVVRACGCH
Description: as §1

[8] = biological target: T4, activin A; test: Biacore SPR; remark: listed apart in the source
Description: as §1

[9] = biological target: T8, BMP15 (UniProt O95972 268-392); test: Biacore SPR
T8 construct: also called GDF9b
T8 sequence (looked up): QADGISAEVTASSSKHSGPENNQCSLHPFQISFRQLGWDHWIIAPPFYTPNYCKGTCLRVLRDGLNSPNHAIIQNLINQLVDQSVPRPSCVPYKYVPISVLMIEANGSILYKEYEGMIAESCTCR
Description: as §1

[10] = biological target: T6, activin AB; test: Biacore SPR; remark: listed apart in the source
Description: as §1

[11] = biological target: T9, BMP9 (UniProt Q9UK05 320-429); test: Biacore SPR
T9 construct: also called GDF2
T9 sequence (looked up): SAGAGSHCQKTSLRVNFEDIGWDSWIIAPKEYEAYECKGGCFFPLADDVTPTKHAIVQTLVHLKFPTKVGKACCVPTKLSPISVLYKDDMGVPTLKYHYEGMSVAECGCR
Description: as §1

[12] = biological target: T2, GDF11; test: Biacore SPR; † very low signal
Description: as §1

[13] = biological target: T2, GDF11; test: Biacore SPR; † very low signal; remark: listed apart in the source
Description: as §1

[14] = biological target: T2, GDF11; test: Biacore SPR; remark: listed apart in the source
Description: as §1

[15] = biological target: T4, activin A; test: Biacore SPR; remark: listed apart in the source
Description: as §1

[16] = biological target: T10, activin B (UniProt P09529 293-407); test: Biacore SPR
T10 sequence (looked up): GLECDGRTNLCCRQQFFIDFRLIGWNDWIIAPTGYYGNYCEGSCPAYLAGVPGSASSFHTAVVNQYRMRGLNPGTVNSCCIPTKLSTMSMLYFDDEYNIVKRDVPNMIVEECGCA
Description: as §1

[17] = biological target: T2, GDF11; test: Biacore SPR; remark: listed apart in the source
Description: as §1

[18] = biological target: T10, activin B; test: Biacore SPR; remark: listed apart in the source
Description: as §1

[19] = biological target: T11, GDF3 (UniProt Q9NR23 251-364); test: Biacore SPR
T11 sequence (looked up): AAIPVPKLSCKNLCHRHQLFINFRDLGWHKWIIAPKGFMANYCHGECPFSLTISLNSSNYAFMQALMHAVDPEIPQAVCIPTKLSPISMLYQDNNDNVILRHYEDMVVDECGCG
Description: as §1

[20] = biological target: T5, BMP10; test: Biacore SPR; remark: listed apart in the source
Description: as §1

[21] = biological target: T9, BMP9; test: Biacore SPR; remark: listed apart in the source
Description: as §1

[22] = biological target: T12, GDF8 (UniProt O14793 267-375); test: Biacore SPR
T12 construct: also called myostatin
T12 sequence (looked up): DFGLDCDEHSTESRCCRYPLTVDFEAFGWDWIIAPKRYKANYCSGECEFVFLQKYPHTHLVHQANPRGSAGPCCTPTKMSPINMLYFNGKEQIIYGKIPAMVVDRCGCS
Description: as §1

[23] = biological target: T7, BMP6; test: Biacore SPR; remark: listed apart in the source
Description: as §1

[24] = biological target: T13, TGFβ1 (human, UniProt P01137 279-390); test: Biacore SPR
T13 construct: Human (PeproTech) is stated for the A549 reporter assay; also called TGF-beta1
Description: (§2) The heteromeric or homomeric protein complexes were independently captured onto the system using an anti-Fc antibody. Ligands were injected and allowed to flow over the captured receptor protein.

[25] = biological target: T14, TGFβ3 (human, UniProt P10600 301-412); test: Biacore SPR
T14 construct: Human (PeproTech) is stated for the A549 reporter assay; also called TGF-beta3
T14 sequence (looked up): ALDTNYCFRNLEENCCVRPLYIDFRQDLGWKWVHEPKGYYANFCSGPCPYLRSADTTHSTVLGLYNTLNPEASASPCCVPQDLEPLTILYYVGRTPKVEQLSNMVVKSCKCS
Description: as §2

[26] = biological target: T15, TGFβ2 (human, UniProt P61812 303-414); test: Biacore SPR
T15 construct: Human (PeproTech) is stated for the A549 reporter assay; also called TGF-beta2
T15 sequence (looked up): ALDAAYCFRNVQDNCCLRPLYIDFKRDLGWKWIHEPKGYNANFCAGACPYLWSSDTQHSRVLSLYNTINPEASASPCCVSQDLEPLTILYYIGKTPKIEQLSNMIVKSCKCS
Description: as §2

T13 sequence (P01137 279-390 limits assumed): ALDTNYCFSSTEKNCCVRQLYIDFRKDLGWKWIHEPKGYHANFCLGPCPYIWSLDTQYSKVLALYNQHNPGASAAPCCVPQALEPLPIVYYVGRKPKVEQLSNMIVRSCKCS

B1: ALK4-Fc homodimer (Fc fusion, UniProt P36896 24-126, looked up, not shown: a dimerising Fc or GST)
chain: SGPRGVQALLCACTSCLQANYTCETDGACMVSIFNLDGMEHHVRTCIPKVELVPAGKPFYCLSSEDLRNTHCCYTDYCNRIDLRVPSGHLKEPEHPSMWGPVE
notes: extracellular domain
For B1, the binding result [1] was “no binding”, the koff [2] was 0.0048 s⁻¹ and the kon [2] was 5e+06 M⁻¹ s⁻¹. For the same binder, the binding result [3] was “no binding”, the Kd [4] was 20 nM and the koff [4] was 0.012 s⁻¹. The kon [4] was 580000 M⁻¹ s⁻¹, the binding result [5] was “no binding” and the Kd [6] was 2 nM. The koff [6] was 0.0036 s⁻¹, the kon [6] was 1.8e+06 M⁻¹ s⁻¹ and the binding result [7] was “no binding”. It also gave a Kd [8] of 20 nM, a koff [8] of 0.012 s⁻¹ and a kon [8] of 580000 M⁻¹ s⁻¹. For the same binder, the binding result [9] was “no binding”, the Kd [10] was 1.5 nM and the koff [10] was 0.0064 s⁻¹. The kon [10] was 4.4e+06 M⁻¹ s⁻¹, the binding result [11] was “no binding” and the Kd [12] was 0.97 nM. The Kd [13] was 0.97 nM, the koff [14] was 0.0048 s⁻¹ and the kon [14] was 5e+06 M⁻¹ s⁻¹. For the same binder, the Kd [15] was 20 nM, the koff [15] was 0.012 s⁻¹ and the kon [15] was 580000 M⁻¹ s⁻¹. B1: no binding [16].

B2: ALK5-Fc homodimer (Fc fusion, UniProt P36897 34-126, looked up, not shown: a dimerising Fc or GST)
chain: LQCFCHLCTKDNFTCVTDGLCFVSVTETTDKVIHNSMCIAEIDLIPRDRPFVCAPSSKTGSVTTTYCCNQDHCNKIELPTTVKSSPGLGPVEL
notes: extracellular domain
B2: no binding [17]; no binding [18]; no binding [19]. B2: no binding [20]; no binding [21]; no binding [22]. B2: no binding [23]; no binding [24]; no binding [25]. B2: no binding [26].

— patent US20190225669A1 (ACCELERON PHARMA, published 2019)
